# Reference: patent publication US20210206851A1 (MacroGenics, published 2021)
# T1: His-tagged soluble human LAG-3 (shLAG-3-His) (human, UniProt P18627 23-450)
# T1 construct: also called soluble human LAG-3-His fusion protein; extracellular domain of human LAG-3 fused to a His tag; not shown: His tag
# T1 sequence: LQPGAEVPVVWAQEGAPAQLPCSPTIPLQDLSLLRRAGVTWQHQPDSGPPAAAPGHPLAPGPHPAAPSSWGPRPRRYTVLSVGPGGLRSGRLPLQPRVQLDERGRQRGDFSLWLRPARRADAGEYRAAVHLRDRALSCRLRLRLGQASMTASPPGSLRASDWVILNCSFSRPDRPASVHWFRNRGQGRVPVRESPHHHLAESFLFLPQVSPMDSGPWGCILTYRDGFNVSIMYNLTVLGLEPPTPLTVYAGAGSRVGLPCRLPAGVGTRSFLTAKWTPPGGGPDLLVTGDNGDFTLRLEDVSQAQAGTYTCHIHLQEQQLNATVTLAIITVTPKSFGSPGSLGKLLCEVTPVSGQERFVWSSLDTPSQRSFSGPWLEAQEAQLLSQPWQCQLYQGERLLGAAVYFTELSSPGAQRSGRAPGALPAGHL
# T2: soluble human LAG-3-Fc fusion protein (shLAG-3-Fc) (human, UniProt P18627 23-450, biotinylated in the Daudi cell assay)
# T2 construct: also called biotinylated-soluble human LAG-3-Fc fusion protein; not shown: Fc portion; detected with goat anti-human Fc gamma
# T2 sequence: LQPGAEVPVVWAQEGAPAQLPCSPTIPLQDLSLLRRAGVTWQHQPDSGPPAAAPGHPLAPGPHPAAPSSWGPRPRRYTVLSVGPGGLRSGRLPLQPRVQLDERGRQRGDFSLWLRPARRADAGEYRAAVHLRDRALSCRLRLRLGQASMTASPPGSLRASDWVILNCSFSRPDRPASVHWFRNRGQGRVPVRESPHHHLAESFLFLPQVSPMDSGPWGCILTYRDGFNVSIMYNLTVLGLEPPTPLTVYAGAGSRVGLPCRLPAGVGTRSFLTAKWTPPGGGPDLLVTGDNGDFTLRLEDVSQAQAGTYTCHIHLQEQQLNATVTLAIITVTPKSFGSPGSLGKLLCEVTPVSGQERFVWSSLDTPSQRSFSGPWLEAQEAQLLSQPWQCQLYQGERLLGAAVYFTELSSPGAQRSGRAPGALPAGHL
# T3: soluble human LAG-3 fusion protein (extracellular domain of human LAG-3 fused to murine IgG2a) (human; murine, UniProt P18627 23-450)
# T3 construct: also called human LAG-3-murine IgG2a fusion protein; not shown: murine IgG2a
# T3 sequence: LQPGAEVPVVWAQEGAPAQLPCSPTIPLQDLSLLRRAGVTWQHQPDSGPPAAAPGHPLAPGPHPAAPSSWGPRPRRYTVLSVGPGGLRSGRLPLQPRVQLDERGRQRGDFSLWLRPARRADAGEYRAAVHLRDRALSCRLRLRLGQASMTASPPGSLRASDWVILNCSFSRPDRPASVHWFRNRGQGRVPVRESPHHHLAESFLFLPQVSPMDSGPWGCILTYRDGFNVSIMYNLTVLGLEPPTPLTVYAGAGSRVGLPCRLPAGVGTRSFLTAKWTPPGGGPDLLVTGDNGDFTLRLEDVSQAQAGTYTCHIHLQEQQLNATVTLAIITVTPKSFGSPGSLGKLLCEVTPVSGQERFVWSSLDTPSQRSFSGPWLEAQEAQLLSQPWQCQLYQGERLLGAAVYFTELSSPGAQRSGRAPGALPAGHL
# What was measured:
# [1] = molecular target: T1, His-tagged soluble human LAG-3 …; experiment: SPR (Biacore); antibody captured on immobilized Fab2 goat-anti-mouse Fc, shLAG-3-His in solution
# [2] = molecular target: T2, soluble human LAG-3-Fc fusion protein …; experiment: flow cytometry, blocking of biotinylated soluble human LAG-3-Fc binding to MHC class II on Daudi cells
# [3] = molecular target: T2, soluble human LAG-3-Fc fusion protein …; experiment: ELISA, blocking; antibody mixed with soluble human LAG-3-Fc (5 ug/mL), binding to immobilized MHC class II
# [4] = molecular target: T3, soluble human LAG-3 fusion protein …; experiment: SPR (Biacore); human LAG-3 ECD-murine IgG2a fusion captured on Fab2 goat-anti-mouse Fc, antibody in solution
# [5] = molecular target: T4, soluble cynomolgus monkey LAG-3 fusion protein (extracellular domain of cynomolgus monkey LAG-3 fused to … (cynomolgus monkey; murine); experiment: SPR (Biacore); cynomolgus LAG-3 ECD-murine IgG2a fusion captured on Fab2 goat-anti-mouse Fc, antibody in solution
# T4 construct: extracellular domain; also called cynomolgus LAG-3-murine IgG2a fusion protein
# [6] = molecular target: T1, His-tagged soluble human LAG-3 …; experiment: ELISA, blocking; antibody mixed with soluble human LAG-3-His (0.2 ug/ml), binding to immobilized MHC class II
# [7] = molecular target: T1, His-tagged soluble human LAG-3 …; experiment: SPR (Biacore); antibody captured on immobilized Protein A, shLAG-3-His in solution
# [8] = molecular target: T1, His-tagged soluble human LAG-3 …; experiment: SPR (Biacore); antibody captured on immobilized Fab2 goat anti-human Fc, shLAG-3-His in solution
# [9] = molecular target: T1, His-tagged soluble human LAG-3 …; experiment: SPR (Biacore); antibody captured on immobilized Protein G, shLAG-3-His in solution
# [10] = molecular target: T2, soluble human LAG-3-Fc fusion protein …; experiment: flow cytometry, blocking of biotinylated soluble human LAG-3-Fc binding to MHC class II on Daudi cells; remark: listed apart in the source
binder,measurement,setting,value
"LAG-3 mAb 3 (antibody, V domains shown, Murine monoclonal antibody) VH: EVRLQQSGPELVKPGASVKISCKASGYTFTDYNIHWVRQSHGQSLEWIGYIYPYNGDTGYNQKFKTKATLTVDNSSNTAYMELRSLASEDSAVYYCTRWSRNYFGPWFAYWGQGTLVTVSA VL: DIVLTQSPTSLAVSLGQRATISCKASQSVDYDGDSYMNWYQQKPGQPPKLLIYAASNLESGIPARFSGSGSGTDFTLNIHPVEEEDAATYYCQQSSEDPLTFGAGTKLELK",Kd,[1],4.4 nM
same,IC50 (read off the curve),[2],~3 ng/mL
same,IC50 (read off the curve),[3],~30 nM
"LAG-3 mAb 2 (antibody, V domains shown, Murine monoclonal antibody) VH: EVQLQQSGPELVKPGASVKISCKTSGYTFTDYNIHWLRQSHGESLEWIGYIYPYSGDIGYNQKFKNRATLTVDNSSSTAYMDLRSLTSEDSAVFYCARWHRNYFGPWFAYWGQGTPVTVSA VL: DIVLTQSPASLAVSLGQRATISCKASQSVDYDGESYMNWYQQKPGQPPKLLIYVVSNLESGIPARFSGSGSGTDFTLNIHPVEEEDAATYYCQQSSEDPLTFGAGTKLELK",Kd,[1],1.9 nM
same,IC50 (read off the curve),[2],~3 ng/mL
"LAG-3 mAb 4 (antibody, V domains shown, Murine monoclonal antibody) VH: EVQLHQSGPELVKPGASVKISCKTSGYTFTDYNIHWVKQSHGKSLEWIGYIYPYNGDAGYNQNFKTKATLTVDNSSSTAYMELRSLTSEDSAVYYCARWNMNYFGPWFAYWGQGTLVTVSA VL: DIVLTQSPASLAVSLGQRATISCKASQSVDYDGVTYINWYQQKPGQPPKLLIFAASNLESGIPARFSGSGSGTDFTLNIHPVEEEDAATYYCQQSNEDPLTFGAGTKLELK",Kd,[1],0.8 nM
same,IC50 (read off the curve),[2],~3 ng/mL
"LAG-3 mAb 5 (antibody, V domains shown, Murine monoclonal antibody) VH: EVQLQQSGPELVKPGASVKISCKASGYTFTDYNIHWVKQSPGKSLEWIGYIYPYSGDFGYNQKFKSKATLTVDNSSSTAYMDLRSLTSEDSAVFYCARWHRNYFGPWFAYWGQGTLVTVSA VL: DIVLTQSPASLAVSLGQRATISCKASQSVDYDGESYMNWYQQKPGQPPKLLIYVVSNLESGIPARFSGSGSGTDFTLNIHPVEEEDAATYYCQQSSEDPLTFGAGTKLELK",Kd,[1],0.9 nM
same,IC50 (read off the curve),[2],~3 ng/mL
same,IC50 (read off the curve),[3],~30 nM
"hLAG-3 mAb 1 (1.4) (constant region not stated) (antibody, V domains shown, also called hLAG-3 1 (1.4); humanized hLAG-3 1 (1.4)) VH: QVQLVQSGAEVKKPGASVKVSCKASGYTFTNYGMNWVRQAPGQGLEWMGWINTYTGESTYADDFEGRFVFSMDTSASTAYLQISSLKAEDTAVYYCARESLYDYYSMDYWGQGTTVTVSS VL: DIVMTQTPLSLSVTPGQPASISCKSSQSLLHSDAKTYLNWLLQKPGQPPERLIYLVSELDSGVPDRFSGSGSGTDFTLKISRVEAEDVGVYYCWQGTHFPYTFGGGTKVEIK",Kd,[4],< 0.29 nM
same,Kd,[5],< 0.53 nM
same,IC50 (read off the curve),[6],~0.3 nM
"hLAG-3 mAb 1 (1.2), human IgG1 (AA) (antibody, V domains shown, also called hLAG-3 1 (1.2)) VH: QVQLVQSGAEVKKPGASVKVSCKASGYTFTNYGMNWVRQAPGQGLEWMGWINTYTGESTYADDFEGRFVFSMDTSASTAYLQISSLKAEDTAVYYCARESLYDYYSMDYWGQGTTVTVSS VL: DIVMTQTPLSLSVTPGQPASISCKSSQSLLHSDGKTYLNWLLQRPGQSPERLIYLVSELDSGVPDRFSGSGSGTDFTLKISRVEAEDVGVYYCWQGTHFPYTFGGGTKVEIKR",Kd,[7],0.01 nM
"hLAG-3 mAb 1 (1.4), human IgG1 (AA) (antibody, also called hLAG-3 mAb 1 (1.4)^c, e) heavy: not shown light: DIVMTQTPLSLSVTPGQPASISCKSSQSLLHSDAKTYLNWLLQKPGQPPERLIYLVSELDSGVPDRFSGSGSGTDFTLKISRVEAEDVGVYYCWQGTHFPYTFGGGTKVEIKRTVAAPSVFIFPPSDEQLKSGTASVVCLLNNFYPREAKVQWKVDNALQSGNSQESVTEQDSKDSTYSLSSTLTLSKADYEKHKVYACEVTHQGLSSPVTKSFNRGEC",Kd,[8],0.04 nM
"hLAG-3 mAb 1 (1.1), human IgG1 (AA) (antibody, V domains shown, also called hLAG-3 1 (1.1)) VH: QVQLVQSGAEVKKPGASVKVSCKASGYTFTNYGMNWVRQAPGQGLEWMGWINTYTGESTYADDFEGRFVFSMDTSASTAYLQISSLKAEDTAVYYCARESLYDYYSMDYWGQGTTVTVSS VL: DIVMTQTPLSLSVTPGQPASISCKSSQSLLHSDGKTYLNWLLQKPGQSPERLIYLVSELDSGVPDRFSGSGSGTDFTLKISRVEAEDVGVYYCWQGTHFPYTFGGGTKVEIKR",Kd,[7],0.04 nM
"hLAG-3 mAb 1 (2.2), human IgG1 (AA) (antibody, V domains shown, also called hLAG-3 1 (2.2)) VH: QVQLVQSGAEVKKPGASVKVSCKASGYTFTNYGMNWVRQAPGQGLEWMGWINTYTGESTYADDFEGRFVFSMDTSASTAYLQISSLKAEDTAVYFCARESLYDYYSMDYWGQGTTVTVSS VL: DIVMTQTPLSLSVTPGQPASISCKSSQSLLHSDGKTYLNWLLQRPGQSPERLIYLVSELDSGVPDRFSGSGSGTDFTLKISRVEAEDVGVYYCWQGTHFPYTFGGGTKVEIKR",Kd,[7],0.3 nM
"LAG-3 mAb 1 (antibody, V domains shown, Murine monoclonal antibody; also called murine anti-human antibody LAG-3 mAb 1) VH: QIQLVQSGPELKKPGETVKISCKASGYTFRNYGMNWVKQAPGKVLKWMGWINTYTGESTYADDFEGRFAFSLGTSASTAYLQINILKNEDTATYFCARESLYDYYSMDYWGQGTSVTVSS VL: not shown",Kd,[9],0.01 nM
same,Kd,[1],0.013 nM
same,IC50 (read off the curve),[2],~3 ng/mL
same,IC50 (read off the curve),[10],~100 ng/mL
same,IC50 (read off the curve),[3],~20 nM
"LAG-3 mAb 6 (antibody, V domains shown, Murine monoclonal antibody) VH: EVLLQQSGPELVKPGASVKIPCKASGYTFTDYNMDWVKQSHGESLEWIGDINPDNGVTIYNQKFEGKATLTVDKSSSTAYMELRSLTSEDTAVYYCAREADYFYFDYWGQGTTLTVSS VL: DIVMTQSHRFMSTSVGDRVSITCKASQDVSSVVAWYQQKPGQSPKLLIFSASYRYTGVPDRFTGSGSGTDFTFTISSVQAADLAVYYCQQHYSTPWTFGGGTKLEIK",Kd,[1],0.02 nM
same,IC50 (read off the curve),[10],~200 ng/mL
"LAG-3 mAb A (antibody, V domains shown, also called 25F7; BMS-986016) VH: QVQLQQWGAGLLKPSETLSLTCAVYGGSFSDYYWNWIRQPPGKGLEWIGEINHNGNTNSNPSLKSRVTLSLDTSKNQFSLKLRSVTAADTAVYYCAFGYSDYEYNWFDPWGQGTLVTVSS VL: EIVLTQSPATLSLSPGERATLSCRASQSISSYLAWYQQKPGQAPRLLIYDASNRATGIPARFSGSGSGTDFTLTISSLEPEDFAVYYCQQRSNWPLTFGQGTNLEIK",IC50 (read off the curve),[2],~3 ng/mL
same,IC50 (read off the curve),[10],~100 ng/mL
same,IC50 (read off the curve),[6],~0.2 nM
"hLAG-3 mAb 6 (1.1) (antibody, V domains shown, also called hLAG-3 6 (1.1); humanized LAG-3 mAb 6) VH: QVQLVQSGAEVKKPGASVKVSCKASGYTFTDYNMDWVRQAPGQGLEWMGDINPDNGVTIYNQKFEGRVTMTTDTSTSTAYMELRSLRSDDTAVYYCAREADYFYFDYWGQGTTLTVSS VL: DIQMTQSPSSLSASVGDRVTITCRASQDVSSVVAWYQQKPGKAPKLLIYSASYRYTGVPSRFSGSGSGTDFTLTISSLQPEDFATYYCQQHYSTPWTFGGGTKLEIK",Kd,[4],< 0.1 nM
same,Kd,[5],3.7 nM
same,IC50 (read off the curve),[6],~0.3 nM
"hLAG-3 mAb 1 (1.4), IgG4 (S228P) (antibody, also called hLAG-3 mAb 1 (1.4)^c, f) heavy: not shown light: DIVMTQTPLSLSVTPGQPASISCKSSQSLLHSDAKTYLNWLLQKPGQPPERLIYLVSELDSGVPDRFSGSGSGTDFTLKISRVEAEDVGVYYCWQGTHFPYTFGGGTKVEIKRTVAAPSVFIFPPSDEQLKSGTASVVCLLNNFYPREAKVQWKVDNALQSGNSQESVTEQDSKDSTYSLSSTLTLSKADYEKHKVYACEVTHQGLSSPVTKSFNRGEC",Kd,[8],0.05 nM
